Laboratory results published in patent US20240269310A1 (GENERAL HOSPITAL, published 2024).

Tests used:
[1] = target: T1, recombinant murine CDH1 (R&D Systems 8875-EC-050) (murine, UniProt P09803 157-709); experiment: western blot of recombinant purified protein
T1 construct: Bought protein; also called mCDH1; recombinant murine E-cadherin protein
T1 sequence (looked up): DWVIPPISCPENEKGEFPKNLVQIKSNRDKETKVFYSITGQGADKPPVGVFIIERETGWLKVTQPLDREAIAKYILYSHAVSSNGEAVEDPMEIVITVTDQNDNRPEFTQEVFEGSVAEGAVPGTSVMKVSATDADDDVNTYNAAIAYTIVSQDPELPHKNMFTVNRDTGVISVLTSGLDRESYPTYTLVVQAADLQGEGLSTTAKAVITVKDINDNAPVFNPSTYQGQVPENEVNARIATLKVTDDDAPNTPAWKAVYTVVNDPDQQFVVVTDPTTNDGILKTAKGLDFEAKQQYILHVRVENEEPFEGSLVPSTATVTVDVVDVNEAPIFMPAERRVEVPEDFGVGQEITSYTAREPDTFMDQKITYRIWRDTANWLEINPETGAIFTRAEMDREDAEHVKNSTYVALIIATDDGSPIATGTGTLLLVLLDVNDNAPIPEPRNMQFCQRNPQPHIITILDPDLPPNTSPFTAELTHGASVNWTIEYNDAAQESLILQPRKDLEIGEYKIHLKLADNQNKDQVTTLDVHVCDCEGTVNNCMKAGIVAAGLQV
Method: (§1) Western blot analysis was performed on whole cell extracts prepared with RIPA buffer. Proteins were separated on 4-15% polyacrylamide gradient-SDS gels (Bio-Rad), and transferred onto nitrocellulose membrane (Invitrogen). Immunoblots were visualized with Enhanced Chemiluminescence (Perkin-Elmer). Primary antibodies were used against E-cadherin (1:5000; BDBiosciences Clone 36), N-cadherin (1:500; EBiosciences Clone 8C11) and GAPDH (1:2000; Millipore ABS16). 23C6 was also used as a primary antibody for western blot analysis (1:250). Recombinant protein obtained as follows: human CDH1 (R&D Systems 8505-EC-050), murine CDH1 (R&D Systems 8875-EC-050), human CDH2 (R&D Systems 1388NC050) and human CDH11 (Elabscience #PKSH032136).

[2] = target: T2, recombinant human CDH1 (R&D Systems 8505-EC-050) (human, UniProt P12830 155-707); experiment: western blot of recombinant purified protein
T2 construct: Bought protein; also called hCDH1; E-cadherin
T2 sequence (looked up): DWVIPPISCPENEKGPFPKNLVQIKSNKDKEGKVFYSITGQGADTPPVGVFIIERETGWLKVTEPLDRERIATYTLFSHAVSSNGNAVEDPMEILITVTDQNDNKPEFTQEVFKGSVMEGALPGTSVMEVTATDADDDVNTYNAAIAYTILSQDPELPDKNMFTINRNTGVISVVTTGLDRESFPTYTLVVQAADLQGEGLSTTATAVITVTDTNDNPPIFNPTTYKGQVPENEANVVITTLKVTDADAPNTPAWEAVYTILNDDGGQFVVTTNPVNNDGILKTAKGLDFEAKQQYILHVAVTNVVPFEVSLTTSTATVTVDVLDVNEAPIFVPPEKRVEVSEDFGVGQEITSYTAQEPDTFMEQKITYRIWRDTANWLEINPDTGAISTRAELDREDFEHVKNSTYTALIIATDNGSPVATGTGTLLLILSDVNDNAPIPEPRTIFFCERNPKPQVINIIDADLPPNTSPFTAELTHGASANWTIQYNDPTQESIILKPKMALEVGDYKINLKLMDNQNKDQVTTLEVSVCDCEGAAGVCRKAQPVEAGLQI
Method: as §1

[3] = target: T3, CDH1 (E-cadherin) as expressed by PDAC9 cells (human, UniProt P12830 155-882); experiment: flow cytometry of fixed PDAC9 cells after siRNA knockdown
T3 construct: whole, on cells; On fixed cells in flow cytometry; In whole cell lysates in the western blot; PDAC9 is described as patient-derived and is used among the human xenograft models
T3 sequence (looked up): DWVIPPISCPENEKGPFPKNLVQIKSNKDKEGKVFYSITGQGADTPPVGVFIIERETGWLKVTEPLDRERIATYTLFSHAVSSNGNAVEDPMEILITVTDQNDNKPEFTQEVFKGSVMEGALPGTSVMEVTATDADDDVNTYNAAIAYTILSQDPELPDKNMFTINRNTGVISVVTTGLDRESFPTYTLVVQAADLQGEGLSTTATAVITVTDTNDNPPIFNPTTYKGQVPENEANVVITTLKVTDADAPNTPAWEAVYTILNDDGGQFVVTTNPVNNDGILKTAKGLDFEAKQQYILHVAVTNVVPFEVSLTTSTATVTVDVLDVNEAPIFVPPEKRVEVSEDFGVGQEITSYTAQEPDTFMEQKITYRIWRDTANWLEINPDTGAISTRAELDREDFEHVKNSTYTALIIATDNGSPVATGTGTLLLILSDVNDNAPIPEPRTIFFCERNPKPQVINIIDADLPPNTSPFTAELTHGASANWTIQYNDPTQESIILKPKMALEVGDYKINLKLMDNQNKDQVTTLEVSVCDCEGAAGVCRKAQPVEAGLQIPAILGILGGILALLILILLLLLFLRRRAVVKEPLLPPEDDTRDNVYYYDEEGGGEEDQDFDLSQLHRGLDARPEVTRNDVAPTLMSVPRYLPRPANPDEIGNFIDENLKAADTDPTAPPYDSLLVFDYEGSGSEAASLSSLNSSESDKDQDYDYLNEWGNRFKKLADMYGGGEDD
Method: Cell lines were routinely checked for mycoplasma (MycoAlert, Lonza), and were obtained from ATCC. […] PDAC9 were grown as previously described (Porter et al., Proc Natl Acad Sci USA, (2019)). Viability assays were performed at 48 hours after treatment with varying concentration of the 23C6 antibody or PBS control. Viability was determined using Cell Titer Glo reagent (Promega). Proliferation assays were performed by treating MDA-MB-231 cells with a single dose of 23C6 antibody or PBS control and timepoints as indicated, where the relative cell number was determined with the Cell TiterGlo reagent. For migration assays, the MDA-MB-231 cells were harvested with trypsin, and the cells suspended in serum free media. […] The cell suspensions were treated with 23C6 or control, and after 48 hours, the number of cells migrating through the membrane was determined by crystal violet staining and microscopic imaging with automated counting of individual cells using Image J. For siRNA knockdown, ONTARGETplus siRNA smartpools (Horizon Discovery) were obtained and transfected using Lipofectamine RNAiMax reagent (Invitrogen) and the cells harvested for analysis after 5 days. For flow cytometry, in brief the cells were fixed with 4% PFA, blocked with 5% BSA in PBS and incubated with the 23C6 antibody at 1:500 followed by anti-mouse IgG-AlexaFlour 555 and then analyzed on BD Fortessa machine.

[4] = target: T4, CDH11 as expressed by human breast cancer cells (MDA-MB-231 and breast cancer CTC lines Brx-142, Brx-330, … (human, UniProt P55287 54-796)); experiment: western blot of whole cell extracts of MDA-MB-231 and CTC lines; shRNA knockdown as specificity control
T4 construct: whole, on cells; On cells in immunofluorescence and immunohistochemistry; In whole cell extracts (RIPA, SDS gel) in the western blots; also called Cadherin 11; OB-cadherin
T4 sequence (looked up): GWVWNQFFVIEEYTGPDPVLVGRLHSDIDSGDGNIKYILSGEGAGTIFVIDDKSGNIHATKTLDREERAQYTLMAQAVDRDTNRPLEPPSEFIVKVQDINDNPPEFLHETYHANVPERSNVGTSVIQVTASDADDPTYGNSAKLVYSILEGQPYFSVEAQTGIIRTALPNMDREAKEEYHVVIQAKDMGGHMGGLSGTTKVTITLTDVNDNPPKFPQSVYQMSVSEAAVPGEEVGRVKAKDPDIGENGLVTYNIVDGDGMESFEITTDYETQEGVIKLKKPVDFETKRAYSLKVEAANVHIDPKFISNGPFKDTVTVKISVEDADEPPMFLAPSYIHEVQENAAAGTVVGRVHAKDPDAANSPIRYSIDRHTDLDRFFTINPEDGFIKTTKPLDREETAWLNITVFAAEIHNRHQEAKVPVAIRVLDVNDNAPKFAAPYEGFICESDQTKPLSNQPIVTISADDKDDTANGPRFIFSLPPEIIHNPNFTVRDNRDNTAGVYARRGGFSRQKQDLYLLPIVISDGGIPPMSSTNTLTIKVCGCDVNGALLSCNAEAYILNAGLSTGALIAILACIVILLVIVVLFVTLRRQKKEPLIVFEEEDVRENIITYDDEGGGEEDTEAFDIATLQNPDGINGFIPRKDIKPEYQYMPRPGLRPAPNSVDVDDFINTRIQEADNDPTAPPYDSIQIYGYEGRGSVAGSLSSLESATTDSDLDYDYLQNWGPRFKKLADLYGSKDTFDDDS
Method: FIG. 1 is the RNA expression levels of cell adhesion molecules in the CTC lines Brx-82, Brx-142, Brx-394 AVG, Brx-189, Brx-390, Brx-121, Brx-292, Brx-319, Brx-250, Brx-140, or Brx-401 from breast cancer patients. The cell adhesion molecule CDH11 was expressed at the RNA level in multiple breast CTC cell lines (FIG. 1, black outline).
as §1

Measured: binding result

B1: anti-CDH11 monoclonal antibody clone 23C6 (antibody, V domains shown)
VH: EFQLQQSGPELVKPGASVKISCKASGYSFTDYNMNWVKQSNGKSLEWIGAINPNYGTTSYNQKFKGKATLTVDQSSSTAYMQLNSLTSEDSAVYYCTRLYYGSRYFDVWGTGTTVTVSS
VL: QIVVTQSPAIMSASLGERVTMTCTASSSVSSSYLHWYQQKPGSSPKLWIYSTSNLASGVPARFSGSGSGTSYSLTISSMEAEDVATYYCHQYHRSPPTFGGGAKLEIK
notes: also called 23C6 antibody; 23C6 anti-CDH11 antibody
binds: [1] | [2] | [3] | [4]
